As a reminder, the EC50 is the concentration giving half of the maximal effect.

Data on five molecules can be found in PMC12505888, “Inhibitory activities of monoclonal antibodies against Staphylococcus aureus clumping factor A” (mBio, 2025).

In assay [1] the target is A domain of S. aureus Newman ClfA (clumping factor A), residues 40-559 (Staphylococcus aureus Newman) (UniProt Q53653). Description: ELISA; ClfA-A Newman immobilised (100 ng per well); serial dilutions of human complement factor I (20 μg/mL); detected with rabbit anti-factor I polyclonal antibody and anti-rabbit HRP. For orientation: An ELISA detects its analyte on a solid surface through an enzyme-linked reagent.

Assay [2] deals with A domain of ClfA from S. aureus strain N315 (Staphylococcus aureus N315) (UniProt Q99VJ4). Description: ELISA; ClfA-A proteins immobilised (100 ng per well, carbonate/bicarbonate buffer pH 9.6, 4°C overnight); serial dilutions of soluble human fibrinogen (4 mg/mL) in PBS; bound fibrinogen detected with anti-human fibrinogen-HRP, A450.
Assay [3] concerns the target A domain of ClfA from S. aureus strain USA300 LAC (Staphylococcus aureus USA300 LAC). The description is as above.
Assay [4] addresses A domain of ClfA from S. aureus strain WU1 (Staphylococcus aureus WU1). The assay is described as above.
Assay [5] concerns the target Human von Willebrand factor (human) (UniProt P04275). Put plainly: ELISA; human vWF immobilised; vWbp with ClfA-A carrying only His tag added to the reaction; bound vWbp assessed with anti-StrepII antibody.
For assay [6] the target is unchanged. Description: ELISA; human vWF immobilised (100 ng per well); serial dilutions of recombinant ClfA-A (20 μg/mL) or recombinant vWbp (5 μg/mL); detected with anti-StrepII or anti-His HRP antibody.
Assay [7] has as its target T1, A domain of S. aureus Newman ClfA (clumping factor A), residues 40-559 (Staphylococcus aureus Newman, UniProt Q53653 40-559).
T1 construct: Cloned in pET15b (NdeI/BamHI); also called ClfA-A; ClfA-A Newman; source: E. coli BL21, purified (Ni-NTA resin followed by Streptactin resin); not shown: His6, N-terminal, kept
T1 sequence: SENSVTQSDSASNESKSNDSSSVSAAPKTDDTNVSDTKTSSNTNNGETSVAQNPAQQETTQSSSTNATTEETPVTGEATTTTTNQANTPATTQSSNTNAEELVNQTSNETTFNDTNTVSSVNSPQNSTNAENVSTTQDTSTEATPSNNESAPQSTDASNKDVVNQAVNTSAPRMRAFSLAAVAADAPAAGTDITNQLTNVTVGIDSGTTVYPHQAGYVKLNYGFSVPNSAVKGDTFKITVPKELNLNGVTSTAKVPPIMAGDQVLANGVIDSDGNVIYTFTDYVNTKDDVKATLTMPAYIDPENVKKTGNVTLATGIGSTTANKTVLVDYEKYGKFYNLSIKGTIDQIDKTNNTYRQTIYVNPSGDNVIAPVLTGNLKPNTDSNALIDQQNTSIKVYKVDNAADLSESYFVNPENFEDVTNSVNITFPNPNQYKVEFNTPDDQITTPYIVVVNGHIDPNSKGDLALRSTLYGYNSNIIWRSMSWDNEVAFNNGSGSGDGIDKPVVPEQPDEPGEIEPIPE
Put plainly: ELISA; ClfA-A proteins immobilised (100 ng per well, carbonate/bicarbonate buffer pH 9.6, 4°C overnight); serial dilutions of soluble human fibrinogen (4 mg/mL) in PBS; bound fibrinogen detected with anti-human fibrinogen-HRP, A450. The settings on record: both partners purified.

As to Human complement factor I (enzyme), in assay [1], the EC50 was 1800 nM.
In the case of “Human fibrinogen (from UniProt P02671-2 20-644; P02675 31-491; P02679-2 27-437) (complex)”, the half-maximal effective concentration (EC50) in assay [2] was found to be 1300 nM; in assay [3], 1000 nM; in assay [4], 1100 nM.
In assay [5], “vWbp + ClfA-A Newman (from UniProt Q53653 40-559) (complex)” came in with a 50% effective concentration (EC50) of 3500 nM.
For the molecule “von Willebrand binding protein (vWbp) of S. aureus Newman, recombinant (natural protein)”, the concentration for a half-maximal effect (EC50) in assay [6] is 14500 nM.

B1: Human fibrinogen (complex)
chain 1: ADSGEGDFLAEGGGVRGPRVVERHQSACKDSDWPFCSDEDWNYKCPSGCRMKGLIDEVNQDFTNRINKLKNSLFEYQKNNKDSHSLTTNIMEILRGDFSSANNRDNTYNRVSEDLRSRIEVLKRKVIEKVQHIQLLQKNVRAQLVDMKRLEVDIDIKIRSCRGSCSRALAREVDLKDYEDQQKQLEQVIAKDLLPSRDRQHLPLIKMKPVPDLVPGNFKSQLQKVPPEWKALTDMPQMRMELERPGGNEITRGGSTSYGTGSETESPRNPSSAGSWNSGSSGPGSTGNRNPGSSGTGGTATWKPGSSGPGSTGSWNSGSSGTGSTGNQNPGSPRPGSTGTWNPGSSERGSAGHWTSESSVSGSTGQWHSESGSFRPDSPGSGNARPNNPDWGTFEEVSGNVSPGTRREYHTEKLVTSKGDKELRTGKEKVTSGSTTTTRRSCSKTVTKTVIGPDGHKEVTKEVVTSEDGSDCPEAMDLGTLSGIGTLDGFRHRHPDEAAFFDTASTGKTFPGFFSPMLGEFVSETESRGSESGIFTNTKESSSHHPGIAEFPSRGKSSSYSKQFTSSTSYNRGDSTFESKSYKMADEAGSEADHEGTHSTKRGHAKSRPVRGIHTSPLGKPSLSP
chain 2: QGVNDNEEGFFSARGHRPLDKKREEAPSLRPAPPPISGGGYRARPAKAAATQKKVERKAPDAGGCLHADPDLGVLCPTGCQLQEALLQQERPIRNSVDELNNNVEAVSQTSSSSFQYMYLLKDLWQKRQKQVKDNENVVNEYSSELEKHQLYIDETVNSNIPTNLRVLRSILENLRSKIQKLESDVSAQMEYCRTPCTVSCNIPVVSGKECEEIIRKGGETSEMYLIQPDSSVKPYRVYCDMNTENGGWTVIQNRQDGSVDFGRKWDPYKQGFGNVATNTDGKNYCGLPGEYWLGNDKISQLTRMGPTELLIEMEDWKGDKVKAHYGGFTVQNEANKYQISVNKYRGTAGNALMDGASQLMGENRTMTIHNGMFFSTYDRDNDGWLTSDPRKQCSKEDGGGWWYNRCHAANPNGRYYWGGQYTWDMAKHGTDDGVVWMNWKGSWYSMRKMSMKIRPFFPQQ
chain 3: YVATRDNCCILDERFGSYCPTTCGIADFLSTYQTKVDKDLQSLEDILHQVENKTSEVKQLIKAIQLTYNPDESSKPNMIDAATLKSRKMLEEIMKYEASILTHDSSIRYLQEIYNSNNQKIVNLKEKVAQLEAQCQEPCKDTVQIHDITGKDCQDIANKGAKQSGLYFIKPLKANQQFLVYCEIDGSGNGWTVFQKRLDGSVDFKKNWIQYKEGFGHLSPTGTTEFWLGNEKIHLISTQSAIPYALRVELEDWNGRTSTADYAMFKVGPEADKYRLTYAYFAGGDAGDAFDGFDFGDDPSDKFFTSHNGMQFSTWDNDNDKFEGNCAEQDGSGWWMNKCHAGHLNGVYYQGGTYSKASTPNGYDNGIIWATWKTRWYSMKKTTMKIIPFNRLTIGEGQQHHLGGAKQAGDV
notes: Fibrinogen A-alpha chain, human; Fibrinogen B-beta chain, human; Fibrinogen gamma chain, human; also called Fg; source: bought: Sigma; copies: 2 + 2 + 2
B1 yielded an EC50 in assay [7] of 1300 nM.
